In paper PMC7594083, “Preclinical Evaluation of the GRPR-Targeting Antagonist RM26 Conjugated to the Albumin-Binding Domain for GRPR-Targeting Therapy of Cancer” (Pharmaceutics, 2020):

Key:
[1] = Biodistribution in mice bearing PC-3 xenografts; format: in vivo, mice (BALB/c nu/nu female); conditions: female, BALB/c nu/nu, mouse, in vivo, iv, 40 pmol, total radioactivity
Protocol: (§1) Instant thin-layer chromatography (ITLC) results were analyzed using Cyclone® Plus (PerkinElmer). […] BALB/c nu/nu female mice were implanted subcutaneously with PC-3 cells in PBS (6.5 × 10^6 cells/mouse) on the hind leg. […] A group of four mice was used per data point. […] After euthanization, the organs of interest were collected and weighed, and the radioactivity content was measured on a gamma counter.

PC-3 xenografts = test: Biodistribution in mice bearing PC-3 xenografts; format: in vivo, mice (BALB/c nu/nu female); conditions: mouse, in vivo
Protocol: as §1

[2] = In vivo targeting specificity in mice bearing PC-3 xenografts; conditions: female, BALB/c nu/nu, mouse, iv, total radioactivity, 40 pmol i.v., 72 h pi, 4 mice, SD, read-out: tumor activity uptake, non-blocked
Protocol: The activity content was measured using a 2840 automated gamma counter Wizard^2TM (PerkinElmer, Waltham, MA, USA). Instant thin-layer chromatography (ITLC) results were analyzed using Cyclone® Plus (PerkinElmer). Statistical analyses were performed by unpaired, two-tailed t-tests using GraphPad Prism 8 for Windows (GraphPad Software, San Diego, CA, USA); p values below 0.05 were considered significant.
BALB/c nu/nu female mice were implanted subcutaneously with PC-3 cells in PBS (6.5 × 10^6 cells/mouse) on the hind leg. Tumor size was 0.4 ± 0.2 g at the time of the experiment (2−3 weeks following implantations). A group of four mice was used per data point.
The mice were euthanized at 72 h post injection (pi).

GRPR [3] = biological target: T1, GRPR (Homo sapiens, UniProt P30550); conditions: cited from earlier work
T1 sequence (P30550 whole entry): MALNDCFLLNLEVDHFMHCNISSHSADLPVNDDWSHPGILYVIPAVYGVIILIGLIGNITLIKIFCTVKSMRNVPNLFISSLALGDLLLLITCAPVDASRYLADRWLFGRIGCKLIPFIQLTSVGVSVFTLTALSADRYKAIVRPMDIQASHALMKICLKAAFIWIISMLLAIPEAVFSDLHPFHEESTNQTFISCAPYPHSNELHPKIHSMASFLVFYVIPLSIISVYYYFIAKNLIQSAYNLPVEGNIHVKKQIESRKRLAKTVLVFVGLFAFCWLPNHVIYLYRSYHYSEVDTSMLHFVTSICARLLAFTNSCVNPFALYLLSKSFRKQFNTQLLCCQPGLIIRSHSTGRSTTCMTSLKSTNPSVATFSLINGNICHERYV

GRPR [4] = biological target: T1, GRPR; conditions: in vivo; cited from earlier work
[5] = cited from earlier work
Source text: However, as a consequence of the low amplitude for the melting curve of DOTA-ABD-RM26, the melting temperature can only be roughly estimated for this conjugate.

**Q.** What does the source list for `CC[C@H](C)[C@H](NC(=O)[C@H](Cc1c[nH]cn1)NC(=O)[C@H](CC(C)C)NC(=O)[C@H](CCCCN)NC(=O)[C@H](CC(C)C)NC(=O)[C@H](C)NC(=O)[C@H](CCC(=O)O)NC(=O)[C@@H](NC(=O)CNC(=O)[C@H](CCC(=O)O)NC(=O)[C@@H](NC(=O)[C@@H](NC(=O)[C@H](CCCCN)NC(=O)[C@H](C)NC(=O)[C@H](CCCCN)NC(=O)[C@H](CC(N)=O)NC(=O)[C@@H](NC(=O)[C@H](CC(C)C)NC(=O)[C@H](CCCNC(=N)N)NC(=O)[C@H](CCCCN)NC(=O)[C@H](Cc1ccc(O)cc1)NC(=O)[C@H](Cc1ccccc1)NC(=O)[C@H](CC(=O)O)NC(=O)[C@H](CO)NC(=O)[C@@H](NC(=O)CNC(=O)[C@H](Cc1ccc(O)cc1)NC(=O)[C@H](CCCCNC(=O)CSCCC(=O)NCCOCCOCCOCCOCCC(=O)N[C@H](Cc1ccccc1)C(=O)N[C@@H](CCC(N)=O)C(=O)N[C@@H](Cc1c[nH]c2ccccc12)C(=O)N[C@@H](C)C(=O)N[C@H](C(=O)NCC(=O)N[C@@H](Cc1c[nH]cn1)C(=O)N[C@@H](CC(C)C)[C@@H](O)CC(=O)N[C@@H](CC(C)C)C(N)=O)C(C)C)NC(=O)[C@H](CC(=O)O)NC(=O)[C@H](CC(C)C)NC(=O)[C@H](CCC(=O)O)NC(=O)[C@H](CCCNC(=N)N)NC(=O)[C@H](CC(N)=O)NC(=O)[C@H](C)NC(=O)[C@H](CC(C)C)NC(=O)[C@@H](NC(=O)[C@H](CCCCN)NC(=O)[C@H](C)NC(=O)[C@H](CCC(=O)O)NC(=O)[C@H](C)NC(=O)[C@H](CC(C)C)NC(=O)CN1CCN(CC(=O)O)CCN(CC(=O)O)CCN(CC(=O)O)CC1)C(C)C)C(C)C)[C@@H](C)CC)[C@@H](C)O)C(C)C)C(C)C)C(=O)N[C@@H](CC(C)C)C(=O)N[C@@H](C)C(=O)N[C@@H](C)C(=O)N[C@@H](CC(C)C)C(=O)N1CCC[C@H]1C(N)=O` [[^111In]In-DOTA-ABD-RM26, metal not drawn]?
**A.** tissue uptake at 1 h ([1]; activity concentration in blood 1 h pi): 32 ± 4 %ID/g; tissue uptake at 1 h ([1]; bone uptake 1 h pi): 3.3 ± 0.4 %ID/g; tissue uptake at 24 h ([1]; bone uptake 24 h pi): 4.4 ± 0.5 %ID/g; tissue uptake at 1 h ([1]; kidney uptake 1 h pi): 35 ± 6 %ID/g; tissue uptake at 1 h ([1]; tumor activity uptake 1 h pi): 7 ± 2 %ID/g; tissue uptake at 24 h ([1]; tumor activity uptake 24 h pi): 11 ± 2 %ID/g; tissue uptake at 144 h ([1]; tumor activity uptake 144 h pi): 10 ± 1 %ID/g; activity uptake in other organs at 24 h pi (PC-3 xenografts): activity uptake remained stable in the majority of the other studied organs; tissue uptake at 72 h [2]: 10 ± 1 %ID/g

**Q.** Which pharmacokinetics (GRPR [3]) does the source give for “Mercaptopropionyl-[PEG4]-D-Phe-Gln-Trp-Ala-Val-Gly-His-Sta-Leu-NH2 [RM26]” here?
**A.** The pharmacokinetics was “favorable pharmacokinetics”.

**Q.** And the renal reabsorption (GRPR [4])?
**A.** Its renal reabsorption is “low renal reabsorption”.

**Q.** For bombesin, which “secondary structure upon interaction with lipids and membranes” value [5] is on record?
**A.** The value was “form alpha-helical structures”.
